# Where no end group is shown, it is not given here. [ ]: non-standard residue; d: D form. NMeL = CN[C@@H](CC(C)C)C(=O)O; Nle = CCCC[C@H](N)C(=O)O
# T1: human NK2 Receptor (human, UniProt P21452 1-398)
# T1 sequence (looked up): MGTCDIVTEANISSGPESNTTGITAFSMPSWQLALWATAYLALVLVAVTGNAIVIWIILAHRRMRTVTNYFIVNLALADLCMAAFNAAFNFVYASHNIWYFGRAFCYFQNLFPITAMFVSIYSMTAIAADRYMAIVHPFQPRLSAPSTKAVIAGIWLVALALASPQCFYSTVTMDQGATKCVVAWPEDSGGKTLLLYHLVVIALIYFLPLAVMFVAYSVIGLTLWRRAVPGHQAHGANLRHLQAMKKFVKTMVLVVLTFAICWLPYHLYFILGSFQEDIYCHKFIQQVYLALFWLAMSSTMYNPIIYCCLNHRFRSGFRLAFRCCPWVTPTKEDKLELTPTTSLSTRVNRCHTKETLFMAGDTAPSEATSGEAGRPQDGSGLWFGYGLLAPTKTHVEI
# B1: Heptapeptide analog B, Asp-Arg-Phe-Val-Gly-(NMe-Leu)-Nle-NH2 (peptide)
# peptide: DRFVG[NMeL][Nle]-NH2
# notes: synthetic heptapeptide analog of neurokinin A, Fmoc solid-phase synthesis; also called Compound B; Cmpd B
# B2: Heptapeptide analog K, Asp-Arg-Phe-Val-(β-Ala)-Leu-Nle-NH2 (peptide)
# peptide: DRFVALX
# HELM: PEPTIDE1{D.R.F.V.[bAla].L.[Nle].[am]}$$$$V2.0; N-terminus assumed
# SMILES: CCCC[C@H](NC(=O)[C@H](CC(C)C)NC(=O)CCNC(=O)[C@@H](NC(=O)[C@H](Cc1ccccc1)NC(=O)[C@H](CCCNC(=N)N)NC(=O)[C@@H](N)CC(=O)O)C(C)C)C(N)=O
# notes: synthetic heptapeptide analog of neurokinin A, Fmoc solid-phase synthesis; also called Compound K; Cmpd K
# B3: Heptapeptide analog G, Asp-Lys-Phe-Val-(β-Ala)-Leu-Nle-NH2 (peptide)
# peptide: DKFVALX
# HELM: PEPTIDE1{D.K.F.V.[bAla].L.[Nle].[am]}$$$$V2.0; N-terminus assumed
# SMILES: CCCC[C@H](NC(=O)[C@H](CC(C)C)NC(=O)CCNC(=O)[C@@H](NC(=O)[C@H](Cc1ccccc1)NC(=O)[C@H](CCCCN)NC(=O)[C@@H](N)CC(=O)O)C(C)C)C(N)=O
# notes: synthetic heptapeptide analog of neurokinin A, Fmoc solid-phase synthesis; also called Compound G; Cmpd G
# B4: Heptapeptide analog J, Asp-Arg-Phe-Val-Gly-Leu-Nle-NH2 (peptide)
# peptide: DRFVGLX
# HELM: PEPTIDE1{D.R.F.V.G.L.[Nle].[am]}$$$$V2.0; N-terminus assumed
# SMILES: CCCC[C@H](NC(=O)[C@H](CC(C)C)NC(=O)CNC(=O)[C@@H](NC(=O)[C@H](Cc1ccccc1)NC(=O)[C@H](CCCNC(=N)N)NC(=O)[C@@H](N)CC(=O)O)C(C)C)C(N)=O
# notes: synthetic heptapeptide analog of neurokinin A, Fmoc solid-phase synthesis; also called Compound J; Cmpd J
# B5: Heptapeptide analog A, Asp-Lys-Phe-Val-Gly-(NMe-Leu)-Met-NH2 (peptide)
# peptide: DKFVG[NMeL]M-NH2
# notes: synthetic heptapeptide analog of neurokinin A, Fmoc solid-phase synthesis; also called Compound A; Cmpd A
# B6: Heptapeptide analog C, Asp-Arg-Phe-Val-Gly-(NMe-Leu)-Met-NH2 (peptide)
# peptide: DRFVGLM
# HELM: PEPTIDE1{D.R.F.V.G.[meL].M.[am]}$$$$V2.0; N-terminus assumed
# SMILES: CSCC[C@H](NC(=O)[C@H](CC(C)C)N(C)C(=O)CNC(=O)[C@@H](NC(=O)[C@H](Cc1ccccc1)NC(=O)[C@H](CCCNC(=N)N)NC(=O)[C@@H](N)CC(=O)O)C(C)C)C(N)=O
# notes: synthetic heptapeptide analog of neurokinin A, Fmoc solid-phase synthesis; also called Compound C; Cmpd C
# B7: Heptapeptide analog H, Asp-Arg-Phe-Val-Gly-Leu-Met-NH2 (peptide)
# peptide: DRFVGLM-NH2
# notes: synthetic heptapeptide analog of neurokinin A, Fmoc solid-phase synthesis; also called Compound H; Cmpd H
# B8: Heptapeptide analog I, Asp-Arg-Phe-Val-(β-Ala)-Leu-Met-NH2 (peptide)
# peptide: DRFVALM
# HELM: PEPTIDE1{D.R.F.V.[bAla].L.M.[am]}$$$$V2.0; N-terminus assumed
# SMILES: CSCC[C@H](NC(=O)[C@H](CC(C)C)NC(=O)CCNC(=O)[C@@H](NC(=O)[C@H](Cc1ccccc1)NC(=O)[C@H](CCCNC(=N)N)NC(=O)[C@@H](N)CC(=O)O)C(C)C)C(N)=O
# notes: synthetic heptapeptide analog of neurokinin A, Fmoc solid-phase synthesis; also called Compound I; Cmpd I
# B9: Heptapeptide analog E, Asp-Lys-Phe-Val-(β-Ala)-Leu-Met-NH2 (peptide)
# peptide: DKFVALM
# HELM: PEPTIDE1{D.K.F.V.[bAla].L.M.[am]}$$$$V2.0; N-terminus assumed
# SMILES: CSCC[C@H](NC(=O)[C@H](CC(C)C)NC(=O)CCNC(=O)[C@@H](NC(=O)[C@H](Cc1ccccc1)NC(=O)[C@H](CCCCN)NC(=O)[C@@H](N)CC(=O)O)C(C)C)C(N)=O
# notes: synthetic heptapeptide analog of neurokinin A, Fmoc solid-phase synthesis; also called Compound E; Cmpd E
# B10: Heptapeptide analog D, Asp-Lys-Phe-Val-Gly-Leu-Met-NH2 (peptide)
# peptide: DKFVGLM-NH2
# Molecular target: T1, human NK2 Receptor
# Experiment: cell-based or functional assay
row,Binder,maximal calcium response compared to Neurokinin A
1,B1,> 80%
2,B2,> 80%
3,B3,> 80%
4,B4,> 80%
5,B5,> 80%
6,B6,> 80%
7,B7,> 80%
8,B8,> 80%
9,B9,> 80%
10,B10,> 80%

# Molecular target: T2, human NK1 Receptor (human, UniProt P25103 1-407)
# Experiment: cell-based or functional assay
# T2 sequence (P25103 whole entry): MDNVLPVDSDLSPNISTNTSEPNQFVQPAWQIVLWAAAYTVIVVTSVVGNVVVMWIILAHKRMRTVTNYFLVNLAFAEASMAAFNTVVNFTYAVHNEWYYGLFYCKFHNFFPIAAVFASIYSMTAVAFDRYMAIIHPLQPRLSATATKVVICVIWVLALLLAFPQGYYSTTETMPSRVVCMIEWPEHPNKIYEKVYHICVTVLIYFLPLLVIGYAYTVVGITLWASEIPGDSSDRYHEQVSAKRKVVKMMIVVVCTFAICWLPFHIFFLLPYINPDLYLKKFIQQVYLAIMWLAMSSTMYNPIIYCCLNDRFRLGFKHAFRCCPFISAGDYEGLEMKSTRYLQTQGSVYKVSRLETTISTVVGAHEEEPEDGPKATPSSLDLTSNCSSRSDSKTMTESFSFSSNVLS
row,Binder,maximal calcium response compared to Substance P
1,B1,> 90%
2,B2,> 90%
3,B3,> 90%
4,B4,> 90%
5,B5,> 90%
6,B6,> 90%
7,B7,> 90%
8,B8,> 90%
9,B9,> 90%
10,B10,> 90%

# Molecular target: T1, human NK2 Receptor
# Experiment: cell-based or functional assay
# Remark: another data set of the same source
Binder,"hNK2 EC50 (intracellular calcium mobilization, FLIPR, CHO-hNK2 cells)",hNK2 selectivity ratio (EC50 hNK1R/hNK2R)
B1,0.08 nM,70 ratio
B2,1.16 nM,25 ratio
B3,3 nM,26 ratio
B4,0.2 nM,9 ratio
B5,0.14 nM,–
B6,0.16 nM,2 ratio
B7,0.19 nM,0.8 ratio
B8,0.15 nM,12 ratio
B9,0.18 nM,36 ratio

# Molecular target: T2, human NK1 Receptor
# Experiment: cell-based or functional assay
# Remark: another data set of the same source
row,Binder,"hNK1 EC50 (intracellular calcium mobilization, FLIPR, CHO-hNK1 cells)"
1,B1,5.84 nM
2,B2,29.5 nM
3,B3,78.2 nM
4,B4,1.71 nM
5,B5,0.95 nM
6,B6,0.3 nM
7,B7,0.16 nM
8,B8,1.83 nM
9,B9,6.31 nM

# Molecular target: T1, human NK2 Receptor
# Experiment: ratio of Ki hNK1R/hNK2R from the radioligand competition assays
# Description: (§1) Filtration Assays: Stock solutions of compounds (10 mM) were prepared in DMSO and stored at −20° C. until use. Further dilutions were performed in DMSO to provide an 11-point concentration response curve (CRC) spanning final concentrations from 0.01 nM to 10 μM. Radioligand binding experiments were performed immediately after transferring 2 μL of each concentration of test compound to a 96-well plate. […] After drying for 1 h at 40° C., 50 μL of Microscint-20 was added to each filter plate and bound radioactivity was measured using a Microplate TopCount (Packard C9912). […] Filters were washed 4 times with 1 mL ice cold 0.9% NaCl and placed into pico vials with 4 mL of Filter Count.
row,Binder,hNK2 selectivity ratio
1,B1,558 ratio
2,B2,176 ratio
3,B3,189 ratio
4,B4,72.5 ratio
5,B6,167 ratio
6,B7,27.1 ratio
7,B8,108 ratio
8,B9,122 ratio

# Molecular target: T1, human NK2 Receptor
# Experiment: radioligand competition, displacement of 0.1 nM [125I]-NKA from CHO-hNK2 membranes
# Description: as §1
row,Binder,Ki
1,B1,0.59 nM
2,B2,6.85 nM
3,B3,16.4 nM
4,B4,1.74 nM
5,B5,0.2 nM
6,B6,0.12 nM
7,B7,0.31 nM
8,B8,0.88 nM
9,B9,2.11 nM

# Molecular target: T2, human NK1 Receptor
# Experiment: radioligand competition, displacement of 5.0 nM [3H]-septide from CHO-hNK1 membranes
# Description: as §1
row,Binder,Ki
1,B1,331 nM
2,B2,1200 nM
3,B3,3090 nM
4,B4,126 nM
5,B5,50.1 nM
6,B6,20.9 nM
7,B7,8.32 nM
8,B8,95.5 nM
9,B9,257 nM

# Reference: patent publication US20200262868A1 (DIGNIFY THERAPEUTICS, published 2020)
